Experimental data from patent US9969998B2, “Compositions of adenosine deaminase-2 (ADA2), variants thereof and methods of using same” (Halozyme, Inc., priority 2014, dated 2018).
Changes are numbered by the printed parent chain. Numbers in names are those of the source.

B1: ADA2: wild-type human adenosine deaminase 2, mature form SEQ ID NO:5, homodimer (protein, listed as Homo sapiens)
chain: IDETRAHLLLKEKMMRLGGRLVLNTKEELANERLMTLKIAEMKEAMRTLIFPPSMHFFQAKHLIERSQVFNILRMMPKGAALHLHDIGIVTMDWLVRNVTYRPHCHICFTPRGIMQFRFAHPTPRPSEKCSKWILLEDYRKRVQNVTEFDDSLLRNFTLVTQHPEVIYTNQNVVWSKFETIFFTISGLIHYAPVFRDYVFRSMQEFYEDNVLYMEIRARLLPVYELSGEHHDEEWSVKTYQEVAQKFVETHPEFIGIKIIYSDHRSKDVAVIAESIRMAMGLRIKFPTVVAGFDLVGHEDTGHSLHDYKEALMIPAKDGVKLPYFFHAGETDWQGTSIDRNILDALMLNTTRIGHGFALSKHPAVRTYSWKKDIPIEVCPISNQVLKLVSDLRNHPVATLMATGHPMVISSDDPAMFGAKGLSYDFYEVFMGIGGMKADLRTLKQLAMNSIKYSTLLESEKNTFMEIWKKRWDKFIADVATK
modifications: ADA2 mature protein
B2: PEG-K374D: rHuADA2-K374D (SEQ ID NO:20) PEGylated on surface exposed lysines with linear PEG-20K (conjugate)
chain: B1 chain with K371D
modifications: linear PEG-20K on surface lysines; human ADA2 K371D, mature numbering

Columns and labels:
[1] = Adenosine deaminase (ADA) activity assay; assay type: biochemical
From the text: The adenosine deaminase (ADA; EC 3.5.4.4) activity of any of the ADA2 described herein, including a wildtype, variant or conjugate, can be assessed using methods well known in the art. ADA activity assays commonly measure, directly or indirectly, the rate of production a product of the enzymatic reaction. For example, the production of inosine or ammonia can be directly or indirectly measured. In other examples, the decrease of the substrate of the enzyme, e.g., adenosine or 2-deoxyadenosine, is measured. The decrease of the substrate, or the increase of the product, can be measured directly by spectrophotometry, or indirectly, by subsequent enzymatic or oxidation-reduction reactions that use chromogenic substrates or change the absorbance spectra of the reaction.
For example, some commercially available adenosine deaminase (ADA) assays, such as ADA assay kits available from BQ Kits (San Diego, Calif.; Cat. No. BQ014EALD) and Diazyme (Poway, C A; Cat. No. DZ117A-K), utilize colorimetric substrate and spectrophotometric reading to determine the conversion of adenosine to inosine by ADA enzymes. In these assays, the production of inosine is detected by multi-step enzymatic reactions that produce a chromogenic dye. […] The change in absorbance at 556 nm (ΔA556) over time, at 37° C., is measured. […]

[2] = 24 hours, 37° C.
[3] = Distribution in normal organs of naive mice vs. CT26 tumors (IVIS); assay type: in vivo, Balb/c mice; conditions: 24 hr; for (Fluorescent intensity/Tissue Weight) - Baseline: 0.5 mg/kg IV
Experimental: To assess the distribution and elimination of administered PEG-ADA2-K374D in the tumor microenvironment or in normal organs, immunofluorescence was used to assess the presence of PEG-ADA2-K374D administered to mice. PEG-ADA2-K374D was labeled at room temperature for 60 minutes with DyLight755 Sulfydryl-Reactive Dye (DL755), a near-IR fluor, using the DyLight 755 Antibody Labeling Kit (Thermo Scientific, Rockford, Ill.). Alexa Fluor 750 (AF 750) labeled bovine serum albumin (BSA, 1 mg/mL) was purchased from (Life Technology, Carlsbad, Calif.).
To compare the distribution in naïve mice, CT26-tumor bearing mice were generated as described above, and were intravenously administered PEG-ADA2-K374D^DL755 at 0.5 mg/kg (n=3). Separately, naïve Balb/c mice also were intravenously administered PEG-ADA2-K374D^DL755 at 0.5 mg/kg (n=4). The mice were sacrificed and transcardically perfused with heparin normal saline 24 hours post PEG-ADA2-K374D^DL755 injection. Tumors from tumor-bearing mice and organs from naïve mice were collected and imaged with IVIS image system, and DL755 signal intensity was measured with LivingImage software as described above. Signal intensity was normalized by tissue organ weight.

Row | Molecule | Km of ADA2 for adenosine relative to that of ADA1 [1] | activity retained in PBS/BSA control [2] | activity retained after treatment with plasma ([2]; mouse plasma) | (Fluorescent intensity/Tissue Weight) - Baseline ([3]; Bone, naive mice) | (Fluorescent intensity/Tissue Weight) - Baseline ([3]; Brain, naive mice) | (Fluorescent intensity/Tissue Weight) - Baseline ([3]; Colon, naive mice) | (Fluorescent intensity/Tissue Weight) - Baseline ([3]; Heart, naive mice) | (Fluorescent intensity/Tissue Weight) - Baseline ([3]; Kidney, naive mice) | (Fluorescent intensity/Tissue Weight) - Baseline ([3]; Liver, naive mice) | (Fluorescent intensity/Tissue Weight) - Baseline ([3]; Lung, naive mice) | (Fluorescent intensity/Tissue Weight) - Baseline ([3]; Spleen, naive mice) | (Fluorescent intensity/Tissue Weight) - Baseline ([3]; Tumor, CT26 tumor-bearing mice) | Signal Intensity (Tumor vs Organ) ([3]; ratio tumor/Bone) | Signal Intensity (Tumor vs Organ) ([3]; ratio tumor/Brain) | Signal Intensity (Tumor vs Organ) ([3]; ratio tumor/Colon) | Signal Intensity (Tumor vs Organ) ([3]; ratio tumor/Heart) | Signal Intensity (Tumor vs Organ) ([3]; ratio tumor/Kidney) | Signal Intensity (Tumor vs Organ) ([3]; ratio tumor/Liver) | Signal Intensity (Tumor vs Organ) ([3]; ratio tumor/Lung) | Signal Intensity (Tumor vs Organ) ([3]; ratio tumor/Spleen)
1 | B1 | approximately 100 times | no change in activity | about 65% |  |  |  |  |  |  |  |  |  |  |  |  |  |  |  |  | 
2 | B2 |  |  |  | 1.82E+06 | 2.11E+05 | 9.13E+05 | 5.55E+05 | 8.61E+05 | 4.02E+06 | 1.22E+06 | 2.98E+06 | 6.22E+06 | 3.4 | 29.5 | 6.8 | 11.2 | 7.2 | 1.5 | 5.1 | 2.1
